The source of these data is US20230272035A1 (VYCELLIX, published 2023).

In the experiment the target is T1, CD45 (receptor-type tyrosine-protein phosphatase C, PTPRC) (Homo sapiens, UniProt P08575 26-1306).
T1 construct: In the lysis assays CD45 is the endogenous protein on human PBMCs or NK92 effector cells; also called all isoforms of CD45
T1 sequence: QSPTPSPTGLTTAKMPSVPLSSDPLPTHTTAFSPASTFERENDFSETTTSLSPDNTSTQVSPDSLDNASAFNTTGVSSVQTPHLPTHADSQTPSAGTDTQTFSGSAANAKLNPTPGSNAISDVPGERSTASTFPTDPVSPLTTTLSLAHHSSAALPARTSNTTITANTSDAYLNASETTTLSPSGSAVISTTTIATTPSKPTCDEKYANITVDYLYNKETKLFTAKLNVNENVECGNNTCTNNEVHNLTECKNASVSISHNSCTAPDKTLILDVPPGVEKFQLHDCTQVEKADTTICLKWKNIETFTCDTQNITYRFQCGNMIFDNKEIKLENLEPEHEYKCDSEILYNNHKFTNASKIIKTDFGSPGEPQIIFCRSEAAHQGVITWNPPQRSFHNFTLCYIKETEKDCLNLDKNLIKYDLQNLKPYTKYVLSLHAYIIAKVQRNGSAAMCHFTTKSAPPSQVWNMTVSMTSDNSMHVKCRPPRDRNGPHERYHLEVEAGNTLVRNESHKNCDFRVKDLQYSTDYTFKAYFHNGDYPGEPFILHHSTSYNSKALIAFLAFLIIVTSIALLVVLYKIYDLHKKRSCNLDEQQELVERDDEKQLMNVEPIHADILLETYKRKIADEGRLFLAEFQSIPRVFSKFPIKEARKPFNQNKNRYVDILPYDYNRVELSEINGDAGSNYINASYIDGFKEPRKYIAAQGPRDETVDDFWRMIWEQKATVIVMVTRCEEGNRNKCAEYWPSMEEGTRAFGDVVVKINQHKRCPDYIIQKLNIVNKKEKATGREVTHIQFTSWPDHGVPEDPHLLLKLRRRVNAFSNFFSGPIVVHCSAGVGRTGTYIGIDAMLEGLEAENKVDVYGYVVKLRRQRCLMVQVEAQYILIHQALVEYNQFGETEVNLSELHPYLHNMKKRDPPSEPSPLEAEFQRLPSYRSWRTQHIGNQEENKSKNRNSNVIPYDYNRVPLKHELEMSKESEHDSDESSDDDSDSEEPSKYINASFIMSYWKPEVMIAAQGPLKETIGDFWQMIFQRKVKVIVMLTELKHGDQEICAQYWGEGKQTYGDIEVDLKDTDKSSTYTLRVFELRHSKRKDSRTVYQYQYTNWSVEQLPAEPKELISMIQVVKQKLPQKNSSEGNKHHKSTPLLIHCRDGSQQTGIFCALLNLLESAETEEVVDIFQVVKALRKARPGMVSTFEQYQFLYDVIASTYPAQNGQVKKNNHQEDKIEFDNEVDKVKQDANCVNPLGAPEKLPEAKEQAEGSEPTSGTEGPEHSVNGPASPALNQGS
Nature of the experiment: not described; same paragraph: immunoprecipitation studies reveal a physical interaction.

B1: a-CD45-sc (membrane-bound anti-CD45 single chain antibody with CD8a/CD28 stalk and CD34 transmembrane region) (scFv)
scFv: QVQLVESGGGLVQPGGSLKLSCAASGFDFSRYWMSWVRQAPGKGLEWIGEINPTSSTINFTPSLKDKVFISRDNAKNTLYLQMSKVRSEDTALYYCARGNYYRYGDAMDYWGQGTSVTVSKISGGGGSGGGGSGGGGSGGGGSGGGGSSDIVLTQSPASLAVSLGQRATISCRASKSVSTSGYSYLHWYQQKPGQPPKLLIYLASNLESGVPARFSGSGSGTDFTLNIHPVEEEDAATYYCQHSRELPFTFGSGTKLEIKSSGSGSPTTTPAPRPPTPAPTIASQPLSLRPEACRPAAGGAVHTRGLDFAPRKIEVMYPPPYLDNEKSNGTIIHVKGKHLCPSPLFPGPSKPTLIALVTSGALLAVLGITGYFL
notes: The molecule was expressed on the surface of K562 target cells; also called anti-CD45-sc; ai-CD45-sc
As for B1, the binding result is reported as “binds”.

B2: HCMV (Merlin strain; HHV5) protein UL11 (other)
chain: CIPVVGKIGTNVTLNAVDVLPPRDQVRWSYGPGGQGYMLCIFTGTSTTTFNNTRFNFSCLSNYSLLLINVTTQYSTTYRTMTSLDHWLHQRHNHGSRWTLDTCYNLTVNENGTFPTTTTKKPTTTTRTTTTTTQRTTTTRTTTTAKKTTISTTHHKHPSPKKSTTPNSHVEHHVGFEATAAETPLQPSPQHQHLATHALWVLAVVIVIIIIIIFYFRIPQKLWLLWQHDKHGIVLIPQTDL
notes: also called ULll
For the molecule B2, the binding result was “binds”.
